In one assay the target is human PD-L1 (WT) (human, UniProt Q9NZQ7 19-238, limits assumed). The assay can be described thus: method not stated; PD-L1 ISVD-9 on human PD-L1 WT.
A further assay concerns the target T1, CTLA4-muFc (human).
T1 construct: also called soluble human CTLA4
The assay can be described thus: ELISA, CTLA4-muFc coated, anti-human Fc-HRP detection (FIG. 2, Panel C). How it is done: A 96-well plate was coated with CTLA4-muFc (human CTLA4 extracellular domain fused to the N-terminus of mouse Fc, its amino acid sequence is as set forth in SEQ ID NO: 52). Various concentrations of the samples as well as control molecules were added. HRP labeled goat anti-human Fc antibody was used for detection. After being developed with TMB, the plate was read at a wavelength of 450/650 nm in a microplate reader.
A general note: An ELISA detects its analyte on a solid surface through an enzyme-linked reagent.

In the next assay the target is T2, PD-L1-muFc (human).
T2 construct: also called soluble human PD-L1
T2 sequence (chain, as listed by the source limits assumed): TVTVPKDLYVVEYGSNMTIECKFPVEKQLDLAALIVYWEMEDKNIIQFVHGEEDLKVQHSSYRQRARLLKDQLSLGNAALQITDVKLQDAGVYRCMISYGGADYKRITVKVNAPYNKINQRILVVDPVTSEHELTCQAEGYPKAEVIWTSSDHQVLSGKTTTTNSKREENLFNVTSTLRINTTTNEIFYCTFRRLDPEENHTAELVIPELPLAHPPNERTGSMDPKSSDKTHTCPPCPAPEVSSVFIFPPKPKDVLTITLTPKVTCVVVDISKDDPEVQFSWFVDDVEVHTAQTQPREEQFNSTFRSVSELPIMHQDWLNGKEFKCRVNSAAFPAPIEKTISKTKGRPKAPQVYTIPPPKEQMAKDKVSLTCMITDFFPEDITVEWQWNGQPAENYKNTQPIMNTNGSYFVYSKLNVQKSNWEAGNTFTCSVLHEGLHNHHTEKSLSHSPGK
The assay can be described thus: ELISA, PD-L1-muFc coated, anti-human Fc-HRP detection (FIG. 2, Panel B). How it is done: A 96-well plate was coated with PD-L1-muFc (human PD-L1 extracellular domain fused to N-terminus of mouse Fc, its amino acid sequence is as set forth in SEQ ID NO: 53). Various concentrations of the samples as well as control molecules were added. HRP labeled goat anti-human Fc antibody was used for detection. After being developed with TMB, the plate was read at a wavelength of 450/650 nm in a microplate reader.

T1 sequence (chain, as listed by the source limits assumed): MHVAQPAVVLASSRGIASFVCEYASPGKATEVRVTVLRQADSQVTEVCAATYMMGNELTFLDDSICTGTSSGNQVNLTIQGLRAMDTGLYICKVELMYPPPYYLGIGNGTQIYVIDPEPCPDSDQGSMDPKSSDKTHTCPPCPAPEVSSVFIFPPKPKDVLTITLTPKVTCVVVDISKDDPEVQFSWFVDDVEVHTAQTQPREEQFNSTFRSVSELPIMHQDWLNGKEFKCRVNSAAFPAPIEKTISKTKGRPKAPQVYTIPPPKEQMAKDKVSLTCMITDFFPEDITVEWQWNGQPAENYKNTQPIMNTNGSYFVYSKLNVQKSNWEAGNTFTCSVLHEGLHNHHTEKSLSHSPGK
human PD-L1 (WT), sequence (Q9NZQ7 19-238 limits assumed): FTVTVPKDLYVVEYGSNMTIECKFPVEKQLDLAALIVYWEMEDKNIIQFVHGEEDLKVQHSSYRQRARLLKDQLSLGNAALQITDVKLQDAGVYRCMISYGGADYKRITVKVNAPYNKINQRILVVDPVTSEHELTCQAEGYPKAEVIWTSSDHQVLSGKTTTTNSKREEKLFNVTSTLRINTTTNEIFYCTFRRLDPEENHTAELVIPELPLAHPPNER

B1: PD-L1 ISVD-9 (VHH)
VHH: QVQLVESGGGLVQPGGSLRLSCAASGKMSSRRCMAWFRQAPGKERERVAKLLTTSGSTYLADSVKGRFTISRDNSKNTVYLQMNSLRAEDTAVYYCAADSFEDPTCTLVTSSGAFQYWGQGTLVTVSS
notes: also called aPDL1.9; humanized variant of PD-L1 ISVD-4
What is called Kd is the constant that tells how readily two partners part at equilibrium. In the case of B1, the Kd with human PD-L1 (WT) was determined as 5.92 nM.

B2: ipilimumab (antibody, V domains shown)
VH: QVQLVESGGGVVQPGRSLRLSCAASGFTFSSYTMHWVRQAPGKGLEWVTFISYDGNNKYYADSVKGRFTISRDNSKNTLYLQMNSLRAEDTAIYYCARTGWLGPFDYWGQGTLVTVSS
VL: not shown
The EC50 is the midpoint of the concentration-response curve. B2 gave a concentration for a half-maximal effect (EC50) with CTLA4-muFc of around 0.5 nM.

B3: durvalumab (antibody, V domains shown)
VH: EVQLVESGGGLVQPGGSLRLSCAASGFTFSRYWMSWVRQAPGKGLEWVANIKQDGSEKYYVDSVKGRFTISRDNAKNSLYLQMNSLRAEDTAVYYCAREGGWFGELAFDYWGQGTLVTVSS
VL: EIVLTQSPGTLSLSPGERATLSCRASQRVSSSYLAWYQQKPGQAPRLLIYDASSRATGIPDRFSGSGSGTDFTLTISRLEPEDFAVYYCQQYGSLPWTFGQGTKVEIK
In the case of B3, the half-maximal effective concentration (EC50) with PD-L1-muFc was around 0.6 nM.
